# Data: IntAct's records for PubMed 36931259
# B1: 14-3-3 protein sigma (Homo sapiens), P31947 (parent)
# chain: MERASLIQKAKLAEQAERYEDMAAFMKGAVEKGEELSCEERNLLSVAYKNVVGGQRAAWRVLSSIEQKSNEEGSEEKGPEVREYREKVETELQGVCDTVLGLLDSHLIKEAGDAESRVFYLKMKGDYYRYLAEVATGDDKKRIIDSARSAYQEAMDISKKEMPPTNPIRLGLALNFSVFHYEIANSPEEAISLAKTTFDEAMADLHTLSEDSYKDSTLIMQLLRDNLTLWTADNAGEEGGEAPQEPQS
# partner: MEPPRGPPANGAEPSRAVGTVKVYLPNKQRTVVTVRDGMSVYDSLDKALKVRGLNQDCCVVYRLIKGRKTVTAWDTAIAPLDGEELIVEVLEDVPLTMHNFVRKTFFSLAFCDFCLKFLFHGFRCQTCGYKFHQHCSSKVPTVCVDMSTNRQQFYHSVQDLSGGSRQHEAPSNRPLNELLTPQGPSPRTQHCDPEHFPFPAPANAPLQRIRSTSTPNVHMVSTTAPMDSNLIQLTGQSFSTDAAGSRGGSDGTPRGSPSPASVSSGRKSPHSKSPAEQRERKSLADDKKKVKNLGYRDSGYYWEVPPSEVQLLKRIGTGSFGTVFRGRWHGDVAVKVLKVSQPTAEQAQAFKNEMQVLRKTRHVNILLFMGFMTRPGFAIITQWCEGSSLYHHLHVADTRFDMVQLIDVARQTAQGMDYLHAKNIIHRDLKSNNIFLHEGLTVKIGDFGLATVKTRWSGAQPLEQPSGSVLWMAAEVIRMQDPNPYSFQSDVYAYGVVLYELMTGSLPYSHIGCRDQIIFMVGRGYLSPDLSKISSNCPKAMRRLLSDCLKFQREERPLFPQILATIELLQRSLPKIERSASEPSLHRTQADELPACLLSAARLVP
# Variants of: B1
# Settings: with araf_human ARAF
row,effect of a mutation on the interaction,Variant
1,decreasing interaction strength,MERASLIQKAKLAEQAERYEDMAAFMKGAVEKGEELSCEERNLLSVAYENVVGGQEAAWRVLSSIEQKSNEEGSEEKGPEVREYREKVETELQGVCDTVLGLLDSHLIKEAGDAESRVFYLKMKGDYYRYLAEVATGDDKKRIIDSARSAYQEAMDISKKEMPPTNPIRLGLALNFSDFHYEIANSPEEAISLAKTTFDEAMADLHTLSEDSYKDSTLIMQLLRDNLTLWTADNAGEEGGEAPQEPQS [K49E;R56E;V178D]
